# In publication PMC2711183 (The EMBO journal, 2009):
# Where two headings read alike, the source gives them in different places.
# T1: MccB K10A (E. coli) (UniProt Q47506)
# T1 sequence: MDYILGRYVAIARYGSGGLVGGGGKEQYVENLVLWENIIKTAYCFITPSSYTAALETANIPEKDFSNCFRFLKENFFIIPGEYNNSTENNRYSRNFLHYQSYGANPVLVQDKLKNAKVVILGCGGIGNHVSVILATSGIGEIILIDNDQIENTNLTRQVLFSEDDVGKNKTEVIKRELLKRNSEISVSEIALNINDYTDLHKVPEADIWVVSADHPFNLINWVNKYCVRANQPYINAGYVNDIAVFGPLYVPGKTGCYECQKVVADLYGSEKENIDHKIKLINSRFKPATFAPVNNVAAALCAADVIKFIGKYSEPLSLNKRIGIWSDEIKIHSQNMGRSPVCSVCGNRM
# B1: MccB (N-terminal His6-tag removed) (enzyme, E. coli, UniProt Q47506 1-350, looked up)
# chain: MDYILGRYVKIARYGSGGLVGGGGKEQYVENLVLWENIIKTAYCFITPSSYTAALETANIPEKDFSNCFRFLKENFFIIPGEYNNSTENNRYSRNFLHYQSYGANPVLVQDKLKNAKVVILGCGGIGNHVSVILATSGIGEIILIDNDQIENTNLTRQVLFSEDDVGKNKTEVIKRELLKRNSEISVSEIALNINDYTDLHKVPEADIWVVSADHPFNLINWVNKYCVRANQPYINAGYVNDIAVFGPLYVPGKTGCYECQKVVADLYGSEKENIDHKIKLINSRFKPATFAPVNNVAAALCAADVIKFIGKYSEPLSLNKRIGIWSDEIKIHSQNMGRSPVCSVCGNRM
# Tests used:
# [1] = tested on: Nc1ncnc2c1ncn2[C@@H]1O[C@H](COP(=O)(O)OP(=O)(O)OP(=O)(O)O)[C@@H](O)[C@H]1O; assay: purified protein; format: biochemical, Escherichia coli; conditions: 75 mM Tris-HCl pH 8.0, 5 mM MgCl2, 2.5 mM TCEP, co-substrate MccA
# MccB ΔNTE (E. coli) = assay: AUC
# [2] = biological target: B1; assay: crystal structure
# MccB K10A (E. coli) = biological target: T1, MccB K10A (E. coli)
# crystal structure [3] = biological target: the molecule itself; assay: crystal structure
# crystal structure [4] = biological target: the molecule itself; assay: crystal structure; remark: listed apart in the source
Molecule,Km [1],kcat [1],kcat/Km [1],further results
MccB (Escherichia coli; C123L),220 ± 80 µM,0.000306 ± 8.33e-05 s⁻¹,2.22 M⁻¹ s⁻¹,–
MccB (Escherichia coli; K10A),120 ± 20 µM,0.00103 ± 0.000139 s⁻¹,8.33 M⁻¹ s⁻¹,–
MccB (Escherichia coli; N241A),400 ± 120 µM,0.000472 ± 0.000139 s⁻¹,1.11 M⁻¹ s⁻¹,–
MccB (Escherichia coli; R94A),380 ± 130 µM,0.00125 ± 0.000917 s⁻¹,2.22 M⁻¹ s⁻¹,–
MccB (Escherichia coli; Y239A),380 ± 190 µM,5.56e-06 ± 2.22e-06 s⁻¹,0.0139 M⁻¹ s⁻¹,–
MccB ΔNTE (domain or fragment),–,–,–,stoichiometry N (MccB ΔNTE (E. coli)): 2
MRTGNAN [SeMet-MccA],–,–,–,binding result [2]: binds; Km for MccA in the MccB-catalysed reaction (HPLC of product formation) (MccB K10A (E. coli)): 370 µM
"MccB-His6 (enzyme, E. coli, UniProt Q47506 1-350, looked up) MDYILGRYVKIARYGSGGLVGGGGKEQYVENLVLWENIIKTAYCFITPSSYTAALETANIPEKDFSNCFRFLKENFFIIPGEYNNSTENNRYSRNFLHYQSYGANPVLVQDKLKNAKVVILGCGGIGNHVSVILATSGIGEIILIDNDQIENTNLTRQVLFSEDDVGKNKTEVIKRELLKRNSEISVSEIALNINDYTDLHKVPEADIWVVSADHPFNLINWVNKYCVRANQPYINAGYVNDIAVFGPLYVPGKTGCYECQKVVADLYGSEKENIDHKIKLINSRFKPATFAPVNNVAAALCAADVIKFIGKYSEPLSLNKRIGIWSDEIKIHSQNMGRSPVCSVCGNRM",–,–,–,binding result (crystal structure [3]): binds
B1,–,–,–,binding result (crystal structure [4]): binds
